Laboratory results reported in patent publication US20140193432A1 (LIVTECH, published 2014).
Positions count from the first letter of the chain named. Names and notes keep the numbering of the source. One block for each binder: values may come before it.

What was measured:
[1] = target: T1, recombinant protein of the hDlk-1 extracellular region (hDlk-1-His) (human, UniProt P80370 24-303); test: ELISA second format: hDlk-1-His coated at 0.5 µg/ml, antibody titrated from 5 µg/ml
T1 construct: not shown: His tag
T1 sequence: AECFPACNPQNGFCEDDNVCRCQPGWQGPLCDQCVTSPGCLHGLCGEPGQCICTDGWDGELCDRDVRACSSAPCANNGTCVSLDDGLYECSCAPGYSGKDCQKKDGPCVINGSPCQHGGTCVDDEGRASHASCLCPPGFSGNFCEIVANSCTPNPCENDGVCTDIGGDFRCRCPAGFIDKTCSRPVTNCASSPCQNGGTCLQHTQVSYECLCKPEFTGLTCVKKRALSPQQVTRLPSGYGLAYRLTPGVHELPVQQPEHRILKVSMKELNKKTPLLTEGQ

[2] = target: T1, recombinant protein of the hDlk-1 …; test: ELISA third format: hDlk-1-His coated at 0.05 µg/ml, purified antibodies
Procedure: As a third format of ELISA, hDlk-1-His to be coated on a 96-well plate was diluted to a concentration of 1/10, and 0.05 μg/ml hDlk-1-His was then added in an amount of 100 μl/well to the 96-well plate, followed by coating at 4° C. overnight, so as to produce an ELISA plate coated with a low concentration of hDlk-1-His.

EC50 [1]: 0.148 µg/mL
B1: humanized BA-1-3D IgG1/κ antibody (HuBA-1-3D-1) (antibody, V domains shown)
VH: QVQLVQSGAEVKKPGASVKVSCKASGYTFTDYAMHWVRQAPGQGLEWIGVISTYYGNTNYNQKFKGKATMTVDTSTSTAYMELRSLRSDDTAVYYCARGGLREYYYAMDYWGQGTMVTVSS
VL: DIVMTQSPDSLAVSLGERATINCKSSQSLLNSSNQKNYLAWYQQKPGQPPKLLVYFASTRESGVPDRFSGSGSGTDFTLTISSLQAEDVAVYYCQQHYSTPPTFGQGTKLEIKR

EC50 [2]: 0.0355 µg/mL
B2: HuBA-1-3D-1-A24G/T73K (antibody, human IgG1, kappa, V domains shown)
VH: B1 VH with A24G, T74K
VL: B1 VL
notes: human IgG1/κ; also called A24G/T73K mutant; HuBA-1-3D-A24G/T73K

EC50 [1]: 0.154 µg/mL
B3: humanized BA-1-3D IgG1/κ antibody (HuBA-1-3D-2) (antibody, V domains shown)
VH: B1 VH with K67R
VL: B1 VL

EC50 [2]: 0.0254 µg/mL | EC50 [1]: 0.116 µg/mL
B4: mouse-human chimeric BA-1-3D IgG1/κ antibody (ChBA-1-3D) (antibody, V domains shown)
VH: QVQLQQSGPELVRPGVSVKISCKGSGYTFTDYAMHWVKQSHAKSLEWIGVISTYYGNTNYNQKFKGKATMTVDKSSSTAYMELARLTSEDSAIYYCARGGLREYYYAMDYWGQGTSVTVSS
VL: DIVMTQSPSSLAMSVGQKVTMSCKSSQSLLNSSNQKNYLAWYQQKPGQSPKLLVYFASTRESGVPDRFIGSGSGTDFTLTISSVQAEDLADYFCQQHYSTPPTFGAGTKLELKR
